How the values were obtained:
Gal4:rTGA2.1 = Gal4:rTGA2.1 (rice (Oryza sativa L)); assay: cell-based or functional assay
Gal4:rLG2 = Gal4:rLG2 (rice (Oryza sativa L)); assay: cell-based or functional assay

- UAS-Luc reporter (Luc/Gus) in rice protoplasts: Gal4:rTGA2.1 with untagged NH1 (Ubi-NH1) against Gal4:rTGA2.1 alone (Gal4:rTGA2.1): ~2 fold
- UAS-Luc reporter (Luc/Gus) in rice protoplasts: Gal4:rLG2 with untagged NH1 (Ubi-NH1) against Gal4:rLG2 alone (Figure 1) (Gal4:rLG2): ~2 fold
- UAS-Luc reporter (Luc/Gus) in rice protoplasts: Gal4:rLG2 with untagged NH1 (Ubi-NH1) against Gal4:rLG2 alone (Figure 4A) (Gal4:rLG2): ~3 fold
B1: YN:NH1 (natural protein, rice (Oryza sativa L), UniProt Q9FDY4 1-582, looked up)
chain: MEPPTSHVTNAFSDSDSASVEEGGADADADVEALRRLSDNLAAAFRSPEDFAFLADARIAVPGGGGGGGDLLVHRCVLSARSPFLRGVFARRAAAAAGGGGEDGGERLELRELLGGGGEEVEVGYEALRLVLDYLYSGRVGDLPKAACLCVDEDCAHVGCHPAVAFMAQVLFAASTFQVAELTNLFQRRLLDVLDKVEVDNLLLILSVANLCNKSCMKLLERCLDMVVRSNLDMITLEKSLPPDVIKQIIDARLSLGLISPENKGFPNKHVRRIHRALDSDDVELVRMLLTEGQTNLDDAFALHYAVEHCDSKITTELLDLALADVNHRNPRGYTVLHIAARRREPKIIVSLLTKGARPADVTFDGRKAVQISKRLTKQGDYFGVTEEGKPSPKDRLCIEILEQAERRDPQLGEASVSLAMAGESLRGRLLYLENRVALARIMFPMEARVAMDIAQVDGTLEFNLGSGANPPPERQRTTVDLNESPFIMKEEHLARMTALSKTVELGKRFFPRCSNVLDKIMDDETDPVSLGRDTSAEKRKRFHDLQDVLQKAFHEDKEENDRSGLSSSSSSTSIGAIRPRR
